In patent publication US12576154B2, “Conjugates of PSMA-binding moieties with cytotoxic agents” (PHILOCHEM AG, priority 2022, dated 2026):

How the values were obtained:
[1] = Body weight change during comparative therapy experiment (Example 4); type: in vivo, mice; conditions: 250 nmol/kg i.v. on days 8, 10, 12, n=5
Experimental: (§1) HT1080.hPSMA tumor cells were grown to 90% confluence and detached with Trypsin-EDTA 0.05%. Cells were resuspended in Hank's Balanced Salt Solution (HBSS) at a 5×10^7 cells/mL density. 100 μL of HT1080.hPSMA cells (5×10^6 cells) were injected subcutaneously in the right flank of female athymic Balb/c AnNRj-Foxn1 mice (6 to 8 weeks of age). Tumors were grown until volumes of −100 mm^3.
(§2) Tumor-bearing mice were randomized into groups of 5 and 0.1 mL of 50 μM solutions (2% DMSO, PBS, 250 nmol/kg) of the four conjugates (1 to 4), or saline solution (0.9% NaCl) was injected intravenously three times with 1-day break in between (days 8, 10, and 12 after tumor implantation).

HT1080.hPSMA tumor = assay: MMAE release from conjugates in HT1080.hPSMA tumor model (comparison and timepoint study); type: in vivo, mice; conditions: HT1080.hPSMA tumor, n=3
Experimental: HT1080.hPSMA tumor cells were grown to 90% confluence and detached with Trypsin-EDTA 0.05%. Cells were resuspended in Hank's Balanced Salt Solution (HBSS) at a density of 5×10^7 cells/mL. 100 μL of HT1080.hPSMA cells (5×10^6 cells) were injected subcutaneously in the right flank of female athymic Balb/c AnNRj-Foxn1 mice (6 to 8 weeks of age). Tumors were grown until ˜250 mm^3 volume (average).
Comparison study: 0.1 mL of 50 μM solutions (2% DMSO, PBS, 250 nmol/kg) of the four conjugates (1 to 4) were injected intravenously. The animals were sacrificed in groups of 3 after 24 h, and blood and the following organs were extracted: HT1080.hPSMA tumor, heart, lungs, liver, kidney, spleen, stomach. The blood fraction was centrifuged, and the plasma (supernatant) was extracted. The organs were stored at −80° C. before being used for further analysis.
Timepoint study: 0.1 mL of a 50 μM solution (2% DMSO, PBS, 250 nmol/kg) of conjugate 1 was injected intravenously into the tail vein of the mice. The animals were sacrificed in groups of 3 after 6 h, 24 h, 48 h, and 72 h, and blood and the following organs were extracted: HT1080.hPSMA tumor, heart, lungs, liver, kidney, spleen, stomach. The blood fraction was centrifuged, and the plasma (supernatant) was extracted. The organs were stored at −80° C. before being used for further analysis.
Frozen plasma (50 μL) and mouse tissues (˜50 mg) were thawed, and 500 μL of PBS was added. Samples were kept on ice, and 50 μL solution of internal standard (d8-MMAE, 50 nM) was added. Samples were then homogenized at 4° C. with a tissue lyser for 2 minutes at 30 Hz for 4 cycles. After homogenization, samples were centrifuged (21'000 g, 10 min). Subsequently, 100 μL of supernatants were collected and added to 900 μL of acetonitrile (ACN) to induce protein precipitation. After centrifugation (21'000 g, 10 min), 800 μL of supernatants were collected and dried at room temperature with a vacuum centrifuge. Pellets were then resuspended in 20 μL of an aqueous solution containing 3% ACN and 0.1% of HCOOH, and 5 μL were injected into the UHPLC-MS system. Chromatographic separation was carried out on a Hypersil Gold C18 column (100 mm×2.1 mm, 1.9 μm particle size, 175 Å pore size) column temperature was set at 50° C. and a flow rate of 700 μL/min with a gradient program from 95% A (water+0.1% HCOOH), 5% B (ACN+0.1% HCOOH) to 35% of A in 2.5 minutes, from 35% A to 5% A in 0.4 minutes and 5% A was kept for 1.3 minutes before reconditioning at 95% A. The LC system was coupled to a Q-Exactive mass spectrometer via an Ion Max HESI Source. Ionization was carried out with a spray voltage of 3.5 kV; Sheath gas 40 units; Aux gas 10 units; capillary temperature of 380° C.; Aux gas temperature 450° C.; S-lens RF level 60. The mass spectrometer was operating in targeted Single Ion Monitoring mode (t-SIM) following the molecular ion 718.5113 m/z. The detector was working in positive ionization mode with the following parameters: resolution 70'000 (FWHM at 200 m/z); AGC target of 5×10^4; maximum injection time of 200 ms; isolation window 14 m/z; isolation offset 5 m/z. Peak areas of analytes and internal standards were integrated, and corresponding ratios were calculated. The ratios were then transformed into pmol/g of wet tissue using single-concentration external calibration points and corrected by the total weight of the sample analysed. The percentage of injected dose per gram (% ID/g) was finally calculated by normalizing the value based on the total dose injected into the mouse. Data analysis was performed with Skyline v22.2.0.351.

HT1080.hPSMA xenografts [2] = assay: Payload study and combination therapy with L19-IL2 in HT1080.hPSMA tumor model (tumor volume); type: in vivo, mice; conditions: conjugates 250 nmol/kg i.v. days 7 and 11; L19-IL2 2.5 mg/kg i.v. days 8, 10, 12; n=3/4
Experimental: as §1, with “until an average” for “until”, “˜100 mm^3 was reached.” for “−100 mm^3.”
Tumor-bearing mice were randomized into groups of 3 or 4 animals. A 50 μM solution (2% DMSO, 250 nmol/kg; 100 μL) of Conjugate 1, 5, or 6, L19-IL2 (SEQ ID NO: 10, 0.5 mg/mL, 2.5 mg/kg; 100 μL), PBS (100 μL), or L19-IL2 buffer (NaH2PO4 6.7 mM, NaCl 20 mM, KCl 1.8 mM, Mannitol 133 mM, Tween80 0.1% v/v, Glycerol 1% w/v; 100 μL) was injected intravenously (i.e., systemic administration through tail-vein) with the following schedule:
Groups of Conjugates 1, 5, or 6: two separate injections with a 3-day break in between (day 7 and day 11 after tumor implantation).
L19-IL2 group: three separate injections with a 1-day break in between (day 8, day 10, and day 12 after tumor implantation).
Combination therapy groups: two separate injections of Conjugate 1, 5, or 6 with a 3-day break in between (day 7 and day 11 after tumor implantation) and three separate injections of L19-IL2 with a 1-day break in between (day 8, day 10, and day 12 after tumor implantation). […]

HT1080.hPSMA xenografts [3] = assay: Comparative therapy experiment in mice bearing HT1080.hPSMA xenografts (tumor volume); type: in vivo; conditions: 250 nmol/kg i.v. on days 8, 10, 12 after tumor implantation, n=5
Experimental: as §1, §2

CC[C@H](C)[C@@H]([C@@H](CC(=O)N1CCC[C@H]1[C@H](OC)[C@@H](C)C(=O)N[C@H](C)[C@@H](O)c1ccccc1)OC)N(C)C(=O)[C@@H](NC(=O)[C@H](C(C)C)N(C)C(=O)OCc1ccc(NC(=O)[C@@H]2CCCN2C(=O)CNC(=O)CCCCCN2C(=O)CC(SC[C@H](N)C(=O)NCCCCCC(=O)NC[C@H]3CC[C@H](C(=O)N[C@@H](Cc4ccc5ccccc5c4)C(=O)NCCCC[C@H](NC(=O)N[C@@H](CCC(=O)O)C(=O)O)C(=O)O)CC3)C2=O)cc1)C(C)C (stereo partly drawn) [Conjugate 1]
Toxicity (body weight change %) [1]: lowest toxicity
Timepoint study of MMAE release (HT1080.hPSMA tumor; 6 h, 24 h, 48 h, 72 h after i.v. 250 nmol/kg): stable payload accumulation in the tumors over an extended time
MMAE release in tumor (HT1080.hPSMA tumor; 24 hours after intravenous injection, 250 nmol/kg): 4.5 % ID/g
In vivo anti-tumor activity, monotherapy (tumor volume) (HT1080.hPSMA xenografts [2]): slightly lower anti-cancer efficacy as compared to Conjugate 5
Complete remissions (HT1080.hPSMA xenografts [3]): 1/5
Therapeutic efficacy (tumor volume change) (HT1080.hPSMA xenografts [3]): significant shrinkage of the tumors of all 5 mice
